Data on 2 proteins can be found in publication PMC11615228, “3D variability analysis reveals a hidden conformational change controlling ammonia transport in human asparagine synthetase” (Nature Communications, 2024).

The series deals with the molecule itself. Briefly: cryo-EM structure; single-particle cryo-EM of the purified enzyme without ligands; 25 mM Tris-HCl pH 8.0, 200 mM NaCl, 5 mM DTT; WT at 9.0 mg/mL, R142I at 3.2 mg/mL; grids made at 4 °C; C2 symmetry imposed.

B1: wild-type (WT) human asparagine synthetase (ASNS) (enzyme, UniProt P08243 1-561, looked up)
chain: MCGIWALFGSDDCLSVQCLSAMKIAHRGPDAFRFENVNGYTNCCFGFHRLAVVDPLFGMQPIRVKKYPYLWLCYNGEIYNHKKMQQHFEFEYQTKVDGEIILHLYDKGGIEQTICMLDGVFAFVLLDTANKKVFLGRDTYGVRPLFKAMTEDGFLAVCSEAKGLVTLKHSATPFLKVEPFLPGHYEVLDLKPNGKVASVEMVKYHHCRDVPLHALYDNVEKLFPGFEIETVKNNLRILFNNAVKKRLMTDRRIGCLLSGGLDSSLVAATLLKQLKEAQVQYPLQTFAIGMEDSPDLLAARKVADHIGSEHYEVLFNSEEGIQALDEVIFSLETYDITTVRASVGMYLISKYIRKNTDSVVIFSGEGSDELTQGYIYFHKAPSPEKAEEESERLLRELYLFDVLRADRTTAAHGLELRVPFLDHRFSSYYLSLPPEMRIPKNGIEKHLLRETFEDSNLIPKEILWRPKEAFSDGITSVKNSWFKILQEYVEHQVDDAMMANAAQKFPFNTPKTKEGYYYRQVFERHYPGRADWLSHYWMPKWINATDPSARTLTHYKSAVKA
notes: human asparagine synthetase (glutamine-hydrolysing), unmodified recombinant enzyme; the N-terminal residue is Cys-1 (initiator Met removed) and the C-terminal tail ends at residue 560; Cys-1 is C2 in P08243); No tag is stated for the WT enzyme; the variants were purified on Ni-NTA, so the WT construct may also carry a His tag; Residues 201-220, 465-475 and 539-560 have no density in the EM map …
Turning to B1, the “stoichiometry N” value amounted to 2.

B2: R142I ASNS variant (human asparagine synthetase with Arg-142 replaced by isoleucine) (enzyme, UniProt P08243 1-561, looked up)
chain: MCGIWALFGSDDCLSVQCLSAMKIAHRGPDAFRFENVNGYTNCCFGFHRLAVVDPLFGMQPIRVKKYPYLWLCYNGEIYNHKKMQQHFEFEYQTKVDGEIILHLYDKGGIEQTICMLDGVFAFVLLDTANKKVFLGRDTYGVIPLFKAMTEDGFLAVCSEAKGLVTLKHSATPFLKVEPFLPGHYEVLDLKPNGKVASVEMVKYHHCRDVPLHALYDNVEKLFPGFEIETVKNNLRILFNNAVKKRLMTDRRIGCLLSGGLDSSLVAATLLKQLKEAQVQYPLQTFAIGMEDSPDLLAARKVADHIGSEHYEVLFNSEEGIQALDEVIFSLETYDITTVRASVGMYLISKYIRKNTDSVVIFSGEGSDELTQGYIYFHKAPSPEKAEEESERLLRELYLFDVLRADRTTAAHGLELRVPFLDHRFSSYYLSLPPEMRIPKNGIEKHLLRETFEDSNLIPKEILWRPKEAFSDGITSVKNSWFKILQEYVEHQVDDAMMANAAQKFPFNTPKTKEGYYYRQVFERHYPGRADWLSHYWMPKWINATDPSARTLTHYKSAVKA
notes: human asparagine synthetase with R142I; only elution from Ni-NTA with imidazole is described; also called R142I variant; ASNS R142I; source: Sf9 cells (baculovirus), purified (Ni-NTA, PD-10 buffer exchange)
As to B2, the “stoichiometry N” value was determined as 2.
